Literature values, collected in patent US20110212858A1, “SYNTHETIC POLY D/L LYSINE FOR CONTROL OF DIRECTION AND RATE OF NEURITE GROWTH AND REGENERATION” (CHILDRENS HOSPITAL LOS ANGELES, priority 2008, published 2011).

Conditions: requires storage at −80° C.

Substance: laminin
- shelf life: limited shelf life
